Measured values as given in US20160272683A1 (Novo Nordisk, published 2016).
Blank lines part the entries; values can stand above or below the binder they belong to. Numbered stars: 1 amine (or outer) side, 2 acyl side, 3 side chain; on linkers, the order of the positions; unused ones are H or OH. * marks the point of attachment. C18 diacid = O=C(O)CCCCCCCCCCCCCCCCC(=O)*; γGlu = O=C(O)[C@H](CCC(=O)[*:2])N[*:1]

Biological target: T1, human calcitonin receptor (human, UniProt P30988 25-474)
T1 construct: whole, on cells; also called hCT-R; hCTR
T1 sequence (looked up): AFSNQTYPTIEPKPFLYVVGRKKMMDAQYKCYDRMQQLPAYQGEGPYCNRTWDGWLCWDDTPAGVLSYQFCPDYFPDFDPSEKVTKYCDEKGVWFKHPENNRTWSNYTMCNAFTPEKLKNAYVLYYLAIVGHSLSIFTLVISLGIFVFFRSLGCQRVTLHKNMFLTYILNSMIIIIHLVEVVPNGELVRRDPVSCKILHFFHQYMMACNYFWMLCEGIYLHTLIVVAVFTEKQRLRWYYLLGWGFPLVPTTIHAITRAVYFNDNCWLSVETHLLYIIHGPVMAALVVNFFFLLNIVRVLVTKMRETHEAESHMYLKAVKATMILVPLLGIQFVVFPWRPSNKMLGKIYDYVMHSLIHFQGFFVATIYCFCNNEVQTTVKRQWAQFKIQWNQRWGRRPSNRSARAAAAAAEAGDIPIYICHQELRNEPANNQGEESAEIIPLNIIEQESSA
Experiment: whole-cell competition vs 125I-human calcitonin (Assay VIIa)
Method in brief: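 BHK tk'ts 13 cells stably co-expressing human calcitonin receptor and a CRE-luciferase reporter, seeded overnight at 37 °C. Bound tracer counted by scintillation after cold HBSS washes and NaOH/SDS lysis; IC₅₀ from one-site competition fit taken as receptor affinity.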

B1: [N-terminal(C18 diacid-gGlu), des1, 5V, 9V, 10V, 20V, 30S, 31G]mimylin (peptide)
peptide: {C18 diacid-γGlu}-ASEVSTAVVGRLSAELHEVATLPRTETGSGSP-NH2
SMILES: CC(C)C[C@H](NC(=O)[C@H](CCCNC(=N)N)NC(=O)CNC(=O)[C@@H](NC(=O)[C@@H](NC(=O)[C@H](C)NC(=O)[C@@H](NC(=O)[C@H](CO)NC(=O)[C@@H](NC(=O)[C@H](CCC(=O)O)NC(=O)[C@H](CO)NC(=O)[C@H](C)NC(=O)CC[C@H](NC(=O)CCCCCCCCCCCCCCCCC(=O)O)C(=O)O)C(C)C)[C@@H](C)O)C(C)C)C(C)C)C(=O)N[C@@H](CO)C(=O)N[C@@H](C)C(=O)N[C@@H](CCC(=O)O)C(=O)N[C@@H](CC(C)C)C(=O)N[C@@H](Cc1c[nH]cn1)C(=O)N[C@@H](CCC(=O)O)C(=O)N[C@H](C(=O)N[C@@H](C)C(=O)N[C@H](C(=O)N[C@@H](CC(C)C)C(=O)N1CCC[C@H]1C(=O)N[C@@H](CCCNC(=N)N)C(=O)N[C@H](C(=O)N[C@@H](CCC(=O)O)C(=O)N[C@H](C(=O)NCC(=O)N[C@@H](CO)C(=O)NCC(=O)N[C@@H](CO)C(=O)N1CCC[C@H]1C(N)=O)[C@@H](C)O)[C@@H](C)O)[C@@H](C)O)C(C)C
IC50: 1.24 nM

B3: [N-terminal(C18 diacid-gGlu), des1, 9V, 30S, 31G]mimylin (peptide)
peptide: {C18 diacid-γGlu}-ASELSTAVLGRLSAELHELATLPRTETGSGSP-NH2
SMILES: CC(C)C[C@H](NC(=O)[C@H](CCC(=O)O)NC(=O)[C@H](Cc1c[nH]cn1)NC(=O)[C@H](CC(C)C)NC(=O)[C@H](CCC(=O)O)NC(=O)[C@H](C)NC(=O)[C@H](CO)NC(=O)[C@H](CC(C)C)NC(=O)[C@H](CCCNC(=N)N)NC(=O)CNC(=O)[C@H](CC(C)C)NC(=O)[C@@H](NC(=O)[C@H](C)NC(=O)[C@@H](NC(=O)[C@H](CO)NC(=O)[C@H](CC(C)C)NC(=O)[C@H](CCC(=O)O)NC(=O)[C@H](CO)NC(=O)[C@H](C)NC(=O)CC[C@H](NC(=O)CCCCCCCCCCCCCCCCC(=O)O)C(=O)O)[C@@H](C)O)C(C)C)C(=O)N[C@@H](C)C(=O)N[C@H](C(=O)N[C@@H](CC(C)C)C(=O)N1CCC[C@H]1C(=O)N[C@@H](CCCNC(=N)N)C(=O)N[C@H](C(=O)N[C@@H](CCC(=O)O)C(=O)N[C@H](C(=O)NCC(=O)N[C@@H](CO)C(=O)NCC(=O)N[C@@H](CO)C(=O)N1CCC[C@H]1C(N)=O)[C@@H](C)O)[C@@H](C)O)[C@@H](C)O
notes: also called Ex. #76
IC50: 0.855 nM

B4: [N-terminal(C18 diacid-gGlu), des1, 6T, 9V, 30S, 31G]mimylin (peptide)
peptide: {C18 diacid-γGlu}-ASELTTAVLGRLSAELHELATLPRTETGSGSP-NH2
SMILES: CC(C)C[C@H](NC(=O)[C@H](CCC(=O)O)NC(=O)[C@H](Cc1c[nH]cn1)NC(=O)[C@H](CC(C)C)NC(=O)[C@H](CCC(=O)O)NC(=O)[C@H](C)NC(=O)[C@H](CO)NC(=O)[C@H](CC(C)C)NC(=O)[C@H](CCCNC(=N)N)NC(=O)CNC(=O)[C@H](CC(C)C)NC(=O)[C@@H](NC(=O)[C@H](C)NC(=O)[C@@H](NC(=O)[C@@H](NC(=O)[C@H](CC(C)C)NC(=O)[C@H](CCC(=O)O)NC(=O)[C@H](CO)NC(=O)[C@H](C)NC(=O)CC[C@H](NC(=O)CCCCCCCCCCCCCCCCC(=O)O)C(=O)O)[C@@H](C)O)[C@@H](C)O)C(C)C)C(=O)N[C@@H](C)C(=O)N[C@H](C(=O)N[C@@H](CC(C)C)C(=O)N1CCC[C@H]1C(=O)N[C@@H](CCCNC(=N)N)C(=O)N[C@H](C(=O)N[C@@H](CCC(=O)O)C(=O)N[C@H](C(=O)NCC(=O)N[C@@H](CO)C(=O)NCC(=O)N[C@@H](CO)C(=O)N1CCC[C@H]1C(N)=O)[C@@H](C)O)[C@@H](C)O)[C@@H](C)O
notes: also called Ex. #85
IC50: 0.821 nM

B5: [N-terminal(C18 diacid-gGlu), des1, 5V, 9V, 10V, 30S, 31G]mimylin (peptide)
peptide: {C18 diacid-γGlu}-ASEVSTAVVGRLSAELHELATLPRTETGSGSP-NH2
SMILES: CC(C)C[C@H](NC(=O)[C@H](CCC(=O)O)NC(=O)[C@H](Cc1c[nH]cn1)NC(=O)[C@H](CC(C)C)NC(=O)[C@H](CCC(=O)O)NC(=O)[C@H](C)NC(=O)[C@H](CO)NC(=O)[C@H](CC(C)C)NC(=O)[C@H](CCCNC(=N)N)NC(=O)CNC(=O)[C@@H](NC(=O)[C@@H](NC(=O)[C@H](C)NC(=O)[C@@H](NC(=O)[C@H](CO)NC(=O)[C@@H](NC(=O)[C@H](CCC(=O)O)NC(=O)[C@H](CO)NC(=O)[C@H](C)NC(=O)CC[C@H](NC(=O)CCCCCCCCCCCCCCCCC(=O)O)C(=O)O)C(C)C)[C@@H](C)O)C(C)C)C(C)C)C(=O)N[C@@H](C)C(=O)N[C@H](C(=O)N[C@@H](CC(C)C)C(=O)N1CCC[C@H]1C(=O)N[C@@H](CCCNC(=N)N)C(=O)N[C@H](C(=O)N[C@@H](CCC(=O)O)C(=O)N[C@H](C(=O)NCC(=O)N[C@@H](CO)C(=O)NCC(=O)N[C@@H](CO)C(=O)N1CCC[C@H]1C(N)=O)[C@@H](C)O)[C@@H](C)O)[C@@H](C)O
notes: also called Ex. #96
IC50: 0.767 nM

Second part, the binder after the results:

IC50: 0.651 nM
Binder: {C18 diacid-γGlu}-ASELTTAVLGRLSAELHELATLPRTETGSGTP-NH2 (also called Ex. #94) [[N-terminal(C18 diacid-gGlu), des1, 6T, 9V, 30S, 31G, 32T]mimylin]

IC50: 17.3 nM
B2: [N-terminal(C18 diacid-gGlu), des1, 6T, 9V, 14T, 21E, 30T, 31G, 32T]mimylin (peptide)
peptide: {C18 diacid-γGlu}-ASELTTAVLGRLTAELHELETLPRTETGTGTP-NH2
SMILES: CC(C)C[C@H](NC(=O)[C@H](CCC(=O)O)NC(=O)[C@H](C)NC(=O)[C@@H](NC(=O)[C@H](CC(C)C)NC(=O)[C@H](CCCNC(=N)N)NC(=O)CNC(=O)[C@H](CC(C)C)NC(=O)[C@@H](NC(=O)[C@H](C)NC(=O)[C@@H](NC(=O)[C@@H](NC(=O)[C@H](CC(C)C)NC(=O)[C@H](CCC(=O)O)NC(=O)[C@H](CO)NC(=O)[C@H](C)NC(=O)CC[C@H](NC(=O)CCCCCCCCCCCCCCCCC(=O)O)C(=O)O)[C@@H](C)O)[C@@H](C)O)C(C)C)[C@@H](C)O)C(=O)N[C@@H](Cc1c[nH]cn1)C(=O)N[C@@H](CCC(=O)O)C(=O)N[C@@H](CC(C)C)C(=O)N[C@@H](CCC(=O)O)C(=O)N[C@H](C(=O)N[C@@H](CC(C)C)C(=O)N1CCC[C@H]1C(=O)N[C@@H](CCCNC(=N)N)C(=O)N[C@H](C(=O)N[C@@H](CCC(=O)O)C(=O)N[C@H](C(=O)NCC(=O)N[C@H](C(=O)NCC(=O)N[C@H](C(=O)N1CCC[C@H]1C(N)=O)[C@@H](C)O)[C@@H](C)O)[C@@H](C)O)[C@@H](C)O)[C@@H](C)O

IC50: 1.7 nM
Binder: {C18 diacid-γGlu}-ASELTTAVLGRLSAELHELATLPRTETGTGTP-NH2 (also called Ex. #95) [[N-terminal(C18 diacid-gGlu), des1, 6T, 9V, 30T, 31G, 32T]mimylin]

IC50: 9.15 nM
Binder: {C18 diacid-γGlu}-ASELTTAVLGRLEAELHELTTLPRTETGTGTP-NH2 [[N-terminal(C18 diacid-gGlu), des1, 6T, 9V, 14E, 21T, 30T, 31G, 32T]mimylin]

IC50: 0.943 nM
Binder: {C18 diacid-γGlu}-ASEVSTAVLGRLSAELHELATLPRTETGSGSP-NH2 (also called Ex. #86) [[N-terminal(C18 diacid-gGlu), des1, 5V, 9V, 30S, 31G]mimylin]
